Assay results from patent US20150098955A1 (VIELA BIO, published 2015).
Changes are numbered by the printed parent chain. Like-named read-outs stand apart in the source and are kept apart here. One block for each molecule: values may come before it.

Legend:
[1] = biological target: Murine CD40L on cells (D10.G4 / D10G4.1 cells; activated murine T cells) (murine) (UniProt P27548); experiment: cell-based or functional assay
[2] = biological target: Murine MegaCD40L (Axxora, cat. ALX522120) (murine) (UniProt P27548); experiment: cell-based or functional assay
[3] = biological target: Human CD40L, membrane form, on cells (Jurkat D1.1 cells; activated primary human T cells) (human) (UniProt P29965); experiment: cell-based or functional assay
[4] = biological target: T1, Human CD40L, membrane form, on cells (Jurkat D1.1 cells; activated primary human T cells) (human, UniProt P29965 1-261); experiment: cell-based or functional assay
T1 sequence: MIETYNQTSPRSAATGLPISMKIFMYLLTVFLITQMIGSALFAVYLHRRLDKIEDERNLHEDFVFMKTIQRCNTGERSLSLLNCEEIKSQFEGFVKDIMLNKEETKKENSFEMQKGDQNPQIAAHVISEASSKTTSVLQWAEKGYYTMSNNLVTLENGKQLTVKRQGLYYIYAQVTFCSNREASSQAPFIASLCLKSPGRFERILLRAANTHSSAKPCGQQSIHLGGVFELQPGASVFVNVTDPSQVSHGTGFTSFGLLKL

[5] = biological target: T1, Human CD40L, membrane form, on cells …; experiment: cell-based or functional assay; remark: listed apart in the source
[6] = biological target: T2, Recombinant human CD40L (Human MegaCD40L; Axxora) (human, UniProt P29965 47-261, biotinylated with EZ-Link sulfo-NHS-biotin where used in the plate binding assay); experiment: ProteOn XPR36 biosensor, human MegaCD40L immobilized on GLC chip, Tn3 as analyte, equilibrium analysis, 25 C
T2 construct: extracellular domain; Bought construct (Axxora ALX522110): two trimeric CD40 ligands linked via the ACRP30 collagen domain; also called biotinylated Human MegaCD40L; Mega human CD40L; not shown: FLAG tag and collagen domain of ACRP30/adiponectin that links two CD40L trimers
T2 sequence (looked up): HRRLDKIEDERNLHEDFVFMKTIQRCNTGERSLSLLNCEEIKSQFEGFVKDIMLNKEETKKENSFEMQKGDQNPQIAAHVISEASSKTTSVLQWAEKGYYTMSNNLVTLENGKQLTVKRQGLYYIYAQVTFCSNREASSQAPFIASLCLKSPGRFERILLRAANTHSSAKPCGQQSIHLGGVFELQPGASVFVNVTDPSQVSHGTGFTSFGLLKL
Procedure: ProteOn phosphate buffered saline with 0.005% Tween 20, pH 7.4 (PBS/Tween) was used as running buffer. Human MegaCD40L was immobilized on the chip at a surface density of approximately 2300 RU. […] Samples of each concentration were injected into the six analyte channels at a flow rate of 30 μl/min. for 300 seconds. The Kd was determined by using the equilibrium analysis setting within the ProteOn software.

[7] = biological target: T2, Recombinant human CD40L (Human …); experiment: cell-based or functional assay
[8] = biological target: T3, Murine CD40L (form not stated) (murine, UniProt P27548 112-260, limits assumed); experiment: biosensor competition: inhibition of murine CD40L binding to immobilized murine CD40 receptor
T3 construct: also called MuCD40L
T3 sequence (looked up): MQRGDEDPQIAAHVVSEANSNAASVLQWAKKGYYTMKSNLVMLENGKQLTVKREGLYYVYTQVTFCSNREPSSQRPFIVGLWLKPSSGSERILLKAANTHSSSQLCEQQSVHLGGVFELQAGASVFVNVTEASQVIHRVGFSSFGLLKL

[9] = biological target: T3, Murine CD40L (form not stated); experiment: method not stated (figure legend)
[10] = biological target: Murine CD40L on cells (D10.G4 / D10G4.1 cells; activated murine T cells) (murine) (UniProt P27548); experiment: cell-based or functional assay; remark: listed apart in the source
[11] = biological target: Murine MegaCD40L (Axxora, cat. ALX522120) (murine) (UniProt P27548); experiment: cell-based or functional assay; remark: listed apart in the source
[12] = biological target: T2, Recombinant human CD40L (Human …); experiment: ProteOn XPR36 biosensor, human MegaCD40L immobilized on GLC chip, purified Tn3 as analyte
Procedure: Outputs were pool cloned into the soluble secretion vector as previously described, and five 96-well plates were screened for CD40L binding using the soluble protein screening assay described previously. Positive hits were identified relative to the signal obtained with the 311K4E backbone variant. […] PBS, 0.005% Tween20, 3 mM EDTA, pH7.4 was used as running buffer. Off-rates were ranked by visual inspection of the sensorgrams.

[13] = biological target: T2, Recombinant human CD40L (Human …); experiment: capture ELISA: His-tagged Tn3 captured on anti-His antibody, biotinylated Human MegaCD40L detected with SA-HRP

B1: 311-7GS bivalent tandem scaffold (designed binder)
chain: IEVKDVTDTTALITWTNRSSYYNLHGCELTYGIKDVPGDRTTIDLSSPYVHYSIGNLKPDTEYEVSLICLTTDGTYSNPAKETFTTGGGGSGGGGSGGGGSGGGGSGGGGSGGGGSGGGGSIEVKDVTDTTALITWTNRSSYYNLHGCELTYGIKDVPGDRTTIDLSSPYVHYSIGNLKPDTEYEVSLICLTTDGTYSNPAKETFTT
- fold improvement over monovalent 311, inhibition of human CD40L-induced expression on CD19 positive human PBMCs [3]: 7 fold

B2: 311-3GS bivalent tandem scaffold (designed binder)
chain: IEVKDVTDTTALITWTNRSSYYNLHGCELTYGIKDVPGDRTTIDLSSPYVHYSIGNLKPDTEYEVSLICLTTDGTYSNPAKETFTTGGGGSGGGGSGGGGSIEVKDVTDTTALITWTNRSSYYNLHGCELTYGIKDVPGDRTTIDLSSPYVHYSIGNLKPDTEYEVSLICLTTDGTYSNPAKETFTT
- fold improvement over monovalent 311, inhibition of human CD40L-induced expression on CD19 positive human PBMCs [4]: ~7 fold

B3: Clone 309FGwt - Parental clone with 'humanized' FG loop (designed binder)
chain: AIEVKDVTDTTALITWSDEFGHYDGCELTYGIKDVPGDRTTIDLWWHSAWYSIGNLKPDTEYEVSLICRRGDMSSNPAKETFTTGGGTLGHHHHHHHH
- PBMC IC50 [5]: 760 nM

B4: Clone 341 - Affinity Mature variant (designed binder)
chain: B3 chain with E19D, G21A, H22D, D24V, G25W
- PBMC IC50 [5]: 0.7 nM

B6: Clone 309 - Parental clone isolated from naive Tn3 library (designed binder)
chain: B3 chain with R69Y, R70T, G71D, D72Q, M73E, S74A, S75G
notes: Secreted His8-tagged form purified on Ni-NTA
- Kd [6]: 191 nM
- PBMC IC50 [5]: 226 nM

B8: Clone 344 - Affinity Mature variant (designed binder)
chain: B3 chain with F20V, H22D, D24V, G25V, W46Y, S48M
- PBMC IC50 [5]: 1.3 nM

B11: Clone 340 - Affinity Mature variant (designed binder)
chain: B3 chain with E19D, G21D, H22N, D24E, G25W, W46Y, S48M
notes: Secreted His8-tagged form
- Kd [6]: 2.2 nM
- PBMC IC50 [5]: 0.7 nM

B12: Clone 343 - Affinity Mature variant (designed binder)
chain: B3 chain with S17L, E19D, F20W, H22S, D24H, G25V, W46Y, S48Q
notes: Secreted His8-tagged form
- Kd [6]: 2 nM
- PBMC IC50 [5]: 0.6 nM

B14: Clone 342 - Affinity Mature variant (w/WT FG loop) (designed binder)
chain: B3 chain with E19D, H22E, D24V, G25W, W46Y, S48H, W50H
notes: Secreted His8-tagged form
- Kd [6]: 1.4 nM
- IC50, inhibition of human CD40L-induced NFκB activity (luciferase reporter HEK293 cells) [7]: 1.5 nM
- PBMC IC50 [5]: 0.7 nM

B15: Clone M13 (murine CD40L-specific Tn3 scaffold) (designed binder)
chain: IEVKDVTDTTALITWHDAFGYDFGCELTYGIKDVPGDRTTIDLPDHFHNYSIGNLKPDTEYEVSLICANDHGFDSNPAKETFTT
notes: also called monovalent M13
- IC50 [8]: 71 nM

B17: Clone 311K4E_15 - Clone Variant from second round of affinity maturation (designed binder)
chain: AIEVEDVTDTTALITWTNRSSYANYHHCELTYGIKDVPGDRTTIDLELYVHYSIGNLKPDTEYEVSLICLTTDGTYSNPAKETFTTGGGTLGHHHHHHHH
notes: Secreted His8-tagged form
- Kd [12]: 1.6 nM

B22: Clone 311K4E_3 - Clone Variant from second round of affinity maturation (designed binder)
chain: AIEVEDVTDTTALITWINRSSYHNFPHCELAYGIKDVPGDRTTIDLNSPYVHYSIGNLKPDTEYEVSLICLTTDGTYSNPAKETFTTGGGTLGHHHHHHHH
notes: Secreted His8-tagged form
- Kd [12]: 6.4 nM

B23: Clone 311K4E - Variant from first round of affinity maturation (designed binder)
chain: B22 chain with I17T, H23Y, F25L, P26H, H27G, A31T, N47S
notes: Secreted His8-tagged form
- fold increase in potency over 311 in the PBMC assay [4]: ~100 fold
- Kd [12]: 18 nM

B24: Clone 311K4E_12 - Clone Variant from second round of affinity maturation (designed binder)
chain: B22 chain with I17T, H23S, F25L, P26H, H27G, S48Q, S78N
notes: Secreted His8-tagged form
- fold increase in potency in the PBMC assay relative to 311K4E [4]: 12 fold
- Kd [12]: 1.1 nM

B25: Clone 311K4E_11 - Clone Variant from second round of affinity maturation (designed binder)
chain: B22 chain with I17T, H23A, F25L, H27G, A31T
notes: Secreted His8-tagged form
- Kd [12]: 6.3 nM

Further lines, results first:

- IC50, inhibition of CD86 up regulation on CD19+ B cells (PBMC stimulated with D10.G4 cells) [1]: 0.23 nM
- IC50, inhibition of CD40L-induced NFκB activity [2]: 0.2 nM
Molecule: MR1 anti-murine CD40L monoclonal antibody

- Kd [6]: 10.7 nM
- PBMC IC50 [5]: 11 nM
B5: Clone 347 - Affinity Mature variant (designed binder)
chain: B3 chain with F20V, H22Q, D24V, W46Y, S48M
notes: Secreted His8-tagged form

- Kd [6]: 39 nM
- PBMC IC50 [5]: 37.3 nM
B7: Clone 345 - Affinity Mature variant (designed binder)
chain: B3 chain with E19D, G21A, H22E, D24V
notes: Secreted His8-tagged form

- Kd [6]: 21 nM
- PBMC IC50 [5]: 38.2 nM
B9: Clone 349 - Affinity Mature variant (designed binder)
chain: B3 chain with F20H, G21A, H22E, Y23F, D24I
notes: Secreted His8-tagged form

- Kd [6]: 1.8 nM
- PBMC IC50 [5]: 1 nM
B10: Clone 348 - Affinity Mature variant (designed binder)
chain: B3 chain with E19D, F20I, H22L, D24V, G25W, W46F, S48Q
notes: Secreted His8-tagged form

- Kd [6]: 14.9 nM
- PBMC IC50 [5]: 9 nM
B13: Clone 346 - Affinity Mature variant (designed binder)
chain: B3 chain with E19D, G21E, H22E, D24V, G25V
notes: Secreted His8-tagged form

- fold affinity improvement over M13 [9]: ~20 fold
- IC50, inhibition of CD86 up regulation on CD19+ B cells (PBMC stimulated with D10.G4 cells) [10]: 1.5 nM
- fold increase in potency in the PBMC assay over M13 [10]: 20 fold
- IC50, neutralization of murine CD40L-induced NFκB activity (luciferase reporter cells) [11]: 1.6 nM
B16: Clone M31 (affinity optimized variant of M13, murine CD40L-specific) (designed binder)
chain: B15 chain with A18P, F19S, G24W, N76Y

- binding result [13]: no binding
B18: 309 variant with the BC loop changed to the parent Tn3 BC loop sequence (designed binder)
chain: AIEVKDVTDTTALITWFKPLAEIDGCELTYGIKDVPGDRTTIDLWWHSAWYSIGNLKPDTEYEVSLICYTDQEAGNPAKETFTTGGGTLGHHHHHHHH

- binding result [13]: no binding
B19: 311 variant with the BC loop changed to the parent Tn3 BC loop sequence (designed binder)
chain: AIEVKDVTDTTALITWFKPLAEIDGCELTYGIKDVPGDRTTIDLSSPYVHYSIGNLKPDTEYEVSLICLTTDGTYSNPAKETFTTGGGTLGHHHHHHHH

- binding result [13]: no binding
B20: 309 variant with the DE loop changed to the parent Tn3 DE loop sequence (designed binder)
chain: AIEVKDVTDTTALITWSDEFGHYDGCELTYGIKDVPGDRTTIDLTEDENQYSIGNLKPDTEYEVSLICYTDQEAGNPAKETFTTGGGTLGHHHHHHHH

- binding result [13]: no binding
B21: 311 variant with the DE loop changed to the parent Tn3 DE loop sequence (designed binder)
chain: AIEVKDVTDTTALITWTNRSSYYNLHGCELTYGIKDVPGDRTTIDLTEDENQYSIGNLKPDTEYEVSLICLTTDGTYSNPAKETFTTGGGTLGHHHHHHHH
